Measured values taken from IntAct's records for PubMed 19270079.

What follows are substances tested against pcd15_mouse Pcdh15 (UniProt Q99PJ1).
Sequence of pcd15_mouse Pcdh15 (Q99PJ1 whole entry): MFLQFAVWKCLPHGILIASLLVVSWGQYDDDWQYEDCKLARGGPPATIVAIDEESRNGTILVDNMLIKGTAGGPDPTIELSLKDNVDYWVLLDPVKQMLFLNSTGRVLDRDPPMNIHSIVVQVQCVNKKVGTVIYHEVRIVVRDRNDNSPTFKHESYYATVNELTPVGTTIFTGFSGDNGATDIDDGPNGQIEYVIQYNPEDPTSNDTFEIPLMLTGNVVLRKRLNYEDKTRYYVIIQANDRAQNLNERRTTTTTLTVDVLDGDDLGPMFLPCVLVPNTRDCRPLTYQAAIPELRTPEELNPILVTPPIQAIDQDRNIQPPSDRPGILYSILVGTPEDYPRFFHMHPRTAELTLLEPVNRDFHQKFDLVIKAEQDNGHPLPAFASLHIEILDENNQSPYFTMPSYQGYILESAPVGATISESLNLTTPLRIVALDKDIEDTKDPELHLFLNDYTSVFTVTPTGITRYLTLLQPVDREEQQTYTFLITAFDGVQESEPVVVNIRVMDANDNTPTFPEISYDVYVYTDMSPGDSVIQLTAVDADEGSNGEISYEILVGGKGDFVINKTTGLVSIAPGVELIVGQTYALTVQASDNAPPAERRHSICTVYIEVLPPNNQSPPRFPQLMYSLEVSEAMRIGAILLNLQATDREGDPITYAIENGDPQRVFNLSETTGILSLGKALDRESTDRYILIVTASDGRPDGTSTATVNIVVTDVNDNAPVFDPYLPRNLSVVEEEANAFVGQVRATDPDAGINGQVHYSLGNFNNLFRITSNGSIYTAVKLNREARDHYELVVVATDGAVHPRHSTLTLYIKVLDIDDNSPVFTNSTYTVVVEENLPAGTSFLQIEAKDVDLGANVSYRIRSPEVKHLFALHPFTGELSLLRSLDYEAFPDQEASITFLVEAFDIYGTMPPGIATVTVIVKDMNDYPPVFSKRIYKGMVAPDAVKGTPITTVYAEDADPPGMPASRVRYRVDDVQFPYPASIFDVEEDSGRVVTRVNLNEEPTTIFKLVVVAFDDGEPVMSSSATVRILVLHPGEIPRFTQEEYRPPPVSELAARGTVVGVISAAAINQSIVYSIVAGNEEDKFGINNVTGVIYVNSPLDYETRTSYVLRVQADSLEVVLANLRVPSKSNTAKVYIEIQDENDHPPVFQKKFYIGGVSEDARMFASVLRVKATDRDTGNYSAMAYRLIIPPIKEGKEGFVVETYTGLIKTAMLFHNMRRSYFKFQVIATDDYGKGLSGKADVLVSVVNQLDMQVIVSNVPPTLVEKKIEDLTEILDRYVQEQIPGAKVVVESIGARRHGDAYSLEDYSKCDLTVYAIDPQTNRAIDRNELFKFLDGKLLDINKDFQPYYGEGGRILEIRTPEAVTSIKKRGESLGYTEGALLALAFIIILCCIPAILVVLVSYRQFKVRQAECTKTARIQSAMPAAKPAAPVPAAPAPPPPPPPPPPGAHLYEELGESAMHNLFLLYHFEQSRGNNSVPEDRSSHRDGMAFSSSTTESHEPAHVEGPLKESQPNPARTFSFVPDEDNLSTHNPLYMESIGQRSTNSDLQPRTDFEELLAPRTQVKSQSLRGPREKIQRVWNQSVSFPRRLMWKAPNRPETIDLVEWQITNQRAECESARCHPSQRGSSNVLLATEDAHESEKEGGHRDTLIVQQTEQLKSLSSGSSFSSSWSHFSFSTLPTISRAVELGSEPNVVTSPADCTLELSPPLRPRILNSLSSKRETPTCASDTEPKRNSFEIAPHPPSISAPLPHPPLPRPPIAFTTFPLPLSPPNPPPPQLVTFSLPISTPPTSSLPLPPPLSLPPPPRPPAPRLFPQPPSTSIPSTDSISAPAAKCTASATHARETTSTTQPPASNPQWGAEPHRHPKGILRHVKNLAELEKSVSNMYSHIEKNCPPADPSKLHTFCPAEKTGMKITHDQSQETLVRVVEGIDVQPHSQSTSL

Effect of a mutation on the interaction, decreasing interaction:
Cadherin-23 (Mus musculus), Q99PF4-1 E737V
Cadherin-23 (Mus musculus), Q99PF4-1 R1060W
Cadherin-23 (Mus musculus), Q99PF4-1 D124G
